Laboratory results reported in PMC5587726.

Tests used:
Test in all cases: X-ray crystallography; UMPNPP, Mg2+; Crystals: DNA mixed with ~10 mg/mL protein (4:1 molar) on ice 1 h; cryoprotectant/soak 100 mM HEPES pH 7.5, 20% PEG 4000, 10 mM MgCl2, 50 mM NaCl, 5% glycerol
hPol μΔ2 G433A = hPol μΔ2 G433A (human, UniProt Q9NP87 132-397+=G+411-494, G433A;internal_change)
[1] = target: hPol μΔ2 wildtype (DNA polymerase mu catalytic domain, Loop2 deleted) (human, UniProt Q9NP87 132-397+=G+411-494, internal_change)
hPol μΔ2 W434A = hPol μΔ2 W434A (human, UniProt Q9NP87 132-397+=G+411-494, W434A;internal_change)

Measured: binding result

hPol μΔ2 W434A, sequence (Q9NP87 other isoform, or with tags, fused parts or gaps W434A/| W434A W434A): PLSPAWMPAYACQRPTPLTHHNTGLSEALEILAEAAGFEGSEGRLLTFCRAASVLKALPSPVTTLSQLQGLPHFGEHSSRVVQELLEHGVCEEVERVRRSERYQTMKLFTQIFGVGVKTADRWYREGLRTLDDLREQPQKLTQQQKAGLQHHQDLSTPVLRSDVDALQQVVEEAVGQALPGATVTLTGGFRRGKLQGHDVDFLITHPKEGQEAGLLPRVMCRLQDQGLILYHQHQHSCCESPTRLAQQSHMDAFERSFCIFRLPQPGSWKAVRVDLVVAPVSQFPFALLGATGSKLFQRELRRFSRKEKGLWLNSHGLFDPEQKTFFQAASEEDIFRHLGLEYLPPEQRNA
hPol μΔ2 G433A, sequence (Q9NP87 other isoform, or with tags, fused parts or gaps G433A/| G433A G433A): as the sequence (Q9NP87 other isoform, or with tags, fused parts or gaps W434A/| W434A W434A) above, with G290A, A291W counted along it
hPol μΔ2 wildtype (DNA polymerase mu catalytic domain, Loop2 deleted), sequence (Q9NP87 other isoform, or with tags, fused parts or gaps | mutant): as the sequence (Q9NP87 other isoform, or with tags, fused parts or gaps W434A/| W434A W434A) above, with A291W counted along it

B1: 1-nt gapped DNA (pre-catalytic) (dsDNA)
DNA 1: CGGCATACG
DNA 2: CGTA
DNA 3: GCCG
modifications: 5'-phosphate on downstream primer GCCG
binds: all assays above
